The values below are quoted from earlier work in patent US10373702B2, “Water-soluble trans-membrane proteins and methods for the preparation and use thereof” (Massachusetts Institute of Technology, priority 2014, dated 2019).

The target in the data set is SDF1a (Homo sapiens, UniProt P48061). The settings on record: native membrane-bound receptor with SDF1a.
SDF1a, sequence (P48061 22-89 limits assumed, species assumed): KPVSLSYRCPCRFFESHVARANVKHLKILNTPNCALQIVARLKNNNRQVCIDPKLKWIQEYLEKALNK
SDF1a, sequence (P61073 whole entry partner, species assumed): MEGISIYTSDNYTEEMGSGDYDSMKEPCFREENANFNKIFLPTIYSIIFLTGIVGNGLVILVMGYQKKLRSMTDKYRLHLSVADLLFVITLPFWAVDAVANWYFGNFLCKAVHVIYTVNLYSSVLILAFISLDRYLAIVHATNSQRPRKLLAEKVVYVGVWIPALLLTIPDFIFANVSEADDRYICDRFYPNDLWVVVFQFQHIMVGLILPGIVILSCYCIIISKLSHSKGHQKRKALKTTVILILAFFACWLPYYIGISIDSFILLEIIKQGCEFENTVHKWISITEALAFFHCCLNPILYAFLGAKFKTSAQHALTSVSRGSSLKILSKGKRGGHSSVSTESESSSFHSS

B1: CXCR4: native CXC chemokine receptor type 4 isoform a, 356 amino acids (protein)
chain: MSIPLPLLQIYTSDNYTEEMGSGDYDSMKEPCFREENANFNKIFLPTIYSIIFLTGIVGNGLVILVMGYQKKLRSMTDKYRLHLSVADLLFVITLPFWAVDAVANWYFGNFLCKAVHVIYTVNLYSSVLILAFISLDRYLAIVHATNSQRPRKLLAEKVVYVGVWIPALLLTIPDFIFANVSEADDRYICDRFYPNDLWVVVFQFQHIMVGLILPGIVILSCYCIIISKLSHSKGHQKRKALKTTVILILAFFACWLPYYIGISIDSFILLEIIKQGCEFENTVHKWISITEALAFFHCCLNPILYAFLGAKFKTSAQHALTSVSRGSSLKILSKGKRGGHSSVSTESESSSFHSS
For the molecule B1, the dissociation constant (Kd) is roughly 100 nM.

For orientation: Kd means the concentration at which binding is half-saturated.
